T1: MBP-CsMYB15 (Citrus sinensis Osbeck ('Lane Late' …, UniProt A0A7G7YA61 1-267))
T1 sequence: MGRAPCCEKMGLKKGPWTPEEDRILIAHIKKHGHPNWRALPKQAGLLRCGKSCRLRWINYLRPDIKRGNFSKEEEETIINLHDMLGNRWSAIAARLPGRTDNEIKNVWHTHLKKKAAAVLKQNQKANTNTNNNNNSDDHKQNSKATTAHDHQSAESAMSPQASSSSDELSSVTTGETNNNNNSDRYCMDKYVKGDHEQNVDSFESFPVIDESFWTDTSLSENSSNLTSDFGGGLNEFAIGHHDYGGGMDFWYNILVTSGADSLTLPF

B1: proCs4CL2 probe (dsDNA)
DNA 1: GCAAAAATAACTCACCATCCCCTTTGCTTCCC
DNA 2: GGGAAGCAAAGGGGATGGTGAGTTATTTTTGC
B2: proCs4CL2 unlabeled competitor (dsDNA)
DNA 1: GCAAAAATAACTCACCATCCCCTTTGCTTCCC
DNA 2: GGGAAGCAAAGGGGATGGTGAGTTATTTTTGC

How the values were obtained:
MBP-CsMYB15 [1] = molecular target: T1, MBP-CsMYB15; assay: EMSA; not stated (EMSA as in Shi et al., 2020 with minor modifications); conditions: protein: recombinant; tags: MBP; label: 5' FAM on S18; blunt
MBP-CsMYB15 [2] = molecular target: T1, MBP-CsMYB15; assay: competition; dose-dependent competition against FAM probe N1; not stated (EMSA as in Shi et al., 2020 with minor modifications); conditions: protein: recombinant; tags: MBP; blunt

| Binder | binding result (MBP-CsMYB15 [1]) | binding result (MBP-CsMYB15 [2]) |
| --- | --- | --- |
| B1 | binds | – |
| B2 | – | binds |

Source: article PMC10348809, “CsMYB15 positively regulates Cs4CL2-mediated lignin biosynthesis during juice sac granulation in navel orange”
